Laboratory results as given in article PMC9482650, “Quantitative fragmentomics allow affinity mapping of interactomes” (Nature Communications, 2022).

What was measured:
Assay in all cases: holdup assay
Design in all cases: key: below the threshold = too weak to quantify, mostly under pKd 3.1 to 4
TJP2_1, Q9UDY2 = molecular target: TJP2_1, Q9UDY2
GRASP, Q7Z6J2 = molecular target: GRASP, Q7Z6J2
SCRIB_2, Q14160 = molecular target: SCRIB_2, Q14160
PDZD2_2, O15018 = molecular target: T1, PDZD2_2, O15018
T1 sequence (O15018 329-429, limits assumed, looked up): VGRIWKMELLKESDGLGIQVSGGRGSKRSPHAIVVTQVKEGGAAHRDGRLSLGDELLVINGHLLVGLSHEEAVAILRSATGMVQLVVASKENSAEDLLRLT

MPDZ_10, O75970 = molecular target: T2, MPDZ_10, O75970
T2 sequence (O75970 1624-1722, limits assumed, looked up): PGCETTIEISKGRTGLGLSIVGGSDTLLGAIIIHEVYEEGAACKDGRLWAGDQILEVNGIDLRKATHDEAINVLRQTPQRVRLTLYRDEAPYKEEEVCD

IL16_4, Q14005 = molecular target: IL16_4, Q14005
Chain of IL16_4, Q14005 (Q14005 1229-1329): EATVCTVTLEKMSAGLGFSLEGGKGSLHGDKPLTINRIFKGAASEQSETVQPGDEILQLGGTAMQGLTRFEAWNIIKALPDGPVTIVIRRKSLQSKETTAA

APBA2_1, Q99767 = molecular target: T3, APBA2_1, Q99767
T3 sequence (Q99767 563-664, limits assumed, looked up): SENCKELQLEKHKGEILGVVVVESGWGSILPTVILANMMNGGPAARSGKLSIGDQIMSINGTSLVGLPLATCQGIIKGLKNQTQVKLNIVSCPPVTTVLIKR

DLG5_1, Q8TDM6 = molecular target: DLG5_1, Q8TDM6
Chain of DLG5_1, Q8TDM6 (Q8TDM6 617-713): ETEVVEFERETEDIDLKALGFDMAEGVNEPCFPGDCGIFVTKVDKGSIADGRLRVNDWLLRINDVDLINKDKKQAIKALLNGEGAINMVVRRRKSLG

LNX2_3, Q8N448 = molecular target: T4, LNX2_3, Q8N448
T4 sequence (Q8N448 463-564, limits assumed, looked up): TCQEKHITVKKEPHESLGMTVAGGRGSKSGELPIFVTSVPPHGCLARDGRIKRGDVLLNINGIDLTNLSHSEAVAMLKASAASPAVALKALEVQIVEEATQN

MPP6, Q9NZW5 = molecular target: T5, MPP6, Q9NZW5
T5 sequence (Q9NZW5 125-219, limits assumed, looked up): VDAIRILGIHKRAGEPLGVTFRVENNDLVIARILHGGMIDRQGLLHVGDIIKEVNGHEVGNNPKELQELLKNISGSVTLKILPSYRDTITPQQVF

DFNB31_2, Q9P202 = molecular target: T6, DFNB31_2, Q9P202
T6 sequence (Q9P202 274-371, limits assumed, looked up): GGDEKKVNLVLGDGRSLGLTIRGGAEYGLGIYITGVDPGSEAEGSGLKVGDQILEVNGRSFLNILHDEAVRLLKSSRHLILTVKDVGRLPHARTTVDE

NHERF4_1, Q86UT5-2 = molecular target: NHERF4_1, Q86UT5-2
Chain of NHERF4_1, Q86UT5-2 (Q86UT5 other isoform, or with tags, fused parts or gaps): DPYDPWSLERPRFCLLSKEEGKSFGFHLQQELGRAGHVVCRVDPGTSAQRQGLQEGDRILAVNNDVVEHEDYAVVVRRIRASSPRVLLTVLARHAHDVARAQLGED

LIMK2, P53671 = molecular target: LIMK2, P53671
Chain of LIMK2, P53671 (P53671 143-248): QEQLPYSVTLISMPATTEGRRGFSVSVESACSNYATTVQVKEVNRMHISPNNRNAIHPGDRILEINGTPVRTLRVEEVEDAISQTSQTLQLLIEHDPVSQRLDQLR

RAPGEF6, Q8TEU7 = molecular target: T7, RAPGEF6, Q8TEU7
T7 sequence (Q8TEU7 525-625, limits assumed, looked up): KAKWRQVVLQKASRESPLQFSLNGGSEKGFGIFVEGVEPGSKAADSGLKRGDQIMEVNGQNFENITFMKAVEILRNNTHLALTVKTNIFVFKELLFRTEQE

TJP1_2, Q07157 = molecular target: TJP1_2, Q07157
Chain of TJP1_2, Q07157 (Q07157 181-274): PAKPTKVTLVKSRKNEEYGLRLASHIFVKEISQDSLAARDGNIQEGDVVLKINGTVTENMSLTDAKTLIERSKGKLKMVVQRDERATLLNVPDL

DVL3, Q92997 = molecular target: T8, DVL3, Q92997
T8 sequence (Q92997 244-331, limits assumed, looked up): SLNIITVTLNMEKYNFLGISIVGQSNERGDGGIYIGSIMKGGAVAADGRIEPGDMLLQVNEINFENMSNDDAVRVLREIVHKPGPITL

SNX27, Q96L92 = molecular target: SNX27, Q96L92
ARHGEF11, O15085 = molecular target: T9, ARHGEF11, O15085
T9 sequence (O15085 42-136, limits assumed, looked up): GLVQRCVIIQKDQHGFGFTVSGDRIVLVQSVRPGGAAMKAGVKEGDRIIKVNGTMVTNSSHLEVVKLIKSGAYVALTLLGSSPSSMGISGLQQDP

GRIP2_3, Q9C0E4 = molecular target: GRIP2_3, Q9C0E4
Chain of GRIP2_3, Q9C0E4 (Q9C0E4 238-339): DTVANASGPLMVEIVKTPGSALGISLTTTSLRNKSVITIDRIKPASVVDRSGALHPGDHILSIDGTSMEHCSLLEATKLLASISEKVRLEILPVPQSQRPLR

SCRIB_3, Q14160 = molecular target: SCRIB_3, Q14160
Chain of SCRIB_3, Q14160 (Q14160 999-1103): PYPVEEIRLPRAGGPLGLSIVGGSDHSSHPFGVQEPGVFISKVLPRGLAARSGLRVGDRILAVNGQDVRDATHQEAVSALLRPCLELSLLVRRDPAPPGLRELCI

HTRA1, Q92743 = molecular target: HTRA1, Q92743
Chain of HTRA1, Q92743 (Q92743 360-477): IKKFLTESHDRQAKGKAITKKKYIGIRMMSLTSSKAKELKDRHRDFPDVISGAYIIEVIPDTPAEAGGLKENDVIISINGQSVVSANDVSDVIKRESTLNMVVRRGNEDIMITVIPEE

GRIP2_6, Q9C0E4 = molecular target: GRIP2_6, Q9C0E4
Chain of GRIP2_6, Q9C0E4 (Q9C0E4 648-740): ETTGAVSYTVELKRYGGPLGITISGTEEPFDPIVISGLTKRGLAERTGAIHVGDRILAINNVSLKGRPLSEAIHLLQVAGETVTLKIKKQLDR

DLG1_1, Q12959 = molecular target: DLG1_1, Q12959
IL16_3, Q14005 = molecular target: IL16_3, Q14005
Chain of IL16_3, Q14005 (Q14005 1107-1207): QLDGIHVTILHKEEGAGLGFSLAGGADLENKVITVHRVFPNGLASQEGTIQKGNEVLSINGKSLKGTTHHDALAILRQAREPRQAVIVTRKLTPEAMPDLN

SNTB1, Q13884 = molecular target: T10, SNTB1, Q13884
T10 sequence (Q13884 107-205, limits assumed, looked up): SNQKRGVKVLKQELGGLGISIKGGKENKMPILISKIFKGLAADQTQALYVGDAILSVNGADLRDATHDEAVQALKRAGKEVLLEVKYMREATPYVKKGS

APBA2_2, Q99767 = molecular target: T11, APBA2_2, Q99767
T11 sequence (Q99767 654-744, limits assumed, looked up): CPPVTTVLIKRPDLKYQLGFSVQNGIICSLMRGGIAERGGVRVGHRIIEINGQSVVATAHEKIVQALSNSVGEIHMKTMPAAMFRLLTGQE

[1] = plain residues with an end cap or a label only (N-terminal biotin on a linker: ttds)
[2] = plain residues with an end cap or a label only (N-terminal biotin on a linker: ado-ado)
[3] = plain residues with an end cap or a label only (N-terminal biotin on a linker: none)

Chain of SCRIB_2, Q14160 (Q14160 857-960): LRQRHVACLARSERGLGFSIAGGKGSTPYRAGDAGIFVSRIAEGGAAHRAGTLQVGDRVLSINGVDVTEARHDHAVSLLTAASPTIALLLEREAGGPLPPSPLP
Chain of GRASP, Q7Z6J2 (Q7Z6J2 96-193): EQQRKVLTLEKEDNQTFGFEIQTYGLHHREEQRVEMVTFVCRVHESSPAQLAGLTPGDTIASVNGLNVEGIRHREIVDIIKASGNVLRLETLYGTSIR
Chain of TJP2_1, Q9UDY2 (Q9UDY2 24-128): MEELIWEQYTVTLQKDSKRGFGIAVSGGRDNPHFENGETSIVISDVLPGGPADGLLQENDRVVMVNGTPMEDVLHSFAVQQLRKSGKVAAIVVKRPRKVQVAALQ

Q: Which results are given for TGDTLEKFVEGL [CBP, Q92793]?
A: pKd (TJP2_1, Q9UDY2; [1]): below the threshold; pKd (GRASP, Q7Z6J2; [1]): below the threshold; pKd (SCRIB_2, Q14160; [1]): below the threshold; pKd (PDZD2_2, O15018; [1]): below the threshold; pKd (MPDZ_10, O75970; [1]): 3.67; pKd (IL16_4, Q14005; [1]): below the threshold; pKd (APBA2_1, Q99767; [1]): below the threshold; pKd (DLG5_1, Q8TDM6; [1]): below the threshold; pKd (LNX2_3, Q8N448; [1]): below the threshold; pKd (MPP6, Q9NZW5; [1]): below the threshold; pKd (DFNB31_2, Q9P202; [1]): below the threshold; pKd (NHERF4_1, Q86UT5-2; [1]): 3.71; pKd (LIMK2, P53671; [1]): below the threshold; pKd (RAPGEF6, Q8TEU7; [1]): below the threshold; pKd (TJP1_2, Q07157; [1]): below the threshold; pKd (DVL3, Q92997; [1]): below the threshold; pKd (SNX27, Q96L92; [1]): below the threshold; pKd (ARHGEF11, O15085; [1]): below the threshold; pKd (GRIP2_3, Q9C0E4; [1]): below the threshold; pKd (SCRIB_3, Q14160; [1]): below the threshold; pKd (HTRA1, Q92743; [1]): below the threshold; pKd (GRIP2_6, Q9C0E4; [1]): below the threshold; pKd (DLG1_1, Q12959; [1]): below the threshold; pKd (IL16_3, Q14005; [1]): below the threshold; pKd (SNTB1, Q13884; [1]): below the threshold; pKd (APBA2_2, Q99767; [1]): below the threshold

Q: What does the source list for LHLHGTGIQV [EPHA7, Q15375]?
A: pKd (TJP2_1, Q9UDY2; [2]): below the threshold; pKd (GRASP, Q7Z6J2; [2]): below the threshold; pKd (SCRIB_2, Q14160; [2]): below the threshold; pKd (PDZD2_2, O15018; [2]): below the threshold; pKd (MPDZ_10, O75970; [2]): below the threshold; pKd (IL16_4, Q14005; [2]): below the threshold; pKd (APBA2_1, Q99767; [2]): below the threshold; pKd (DLG5_1, Q8TDM6; [2]): below the threshold; pKd (LNX2_3, Q8N448; [2]): 3.47; pKd (MPP6, Q9NZW5; [2]): 3.88; pKd (DFNB31_2, Q9P202; [2]): below the threshold; pKd (NHERF4_1, Q86UT5-2; [2]): 3.85; pKd (LIMK2, P53671; [2]): below the threshold; pKd (RAPGEF6, Q8TEU7; [2]): below the threshold; pKd (TJP1_2, Q07157; [2]): 4.43; pKd (DVL3, Q92997; [2]): below the threshold; pKd (SNX27, Q96L92; [2]): 3.53; pKd (ARHGEF11, O15085; [2]): 4.51; pKd (GRIP2_3, Q9C0E4; [2]): below the threshold; pKd (SCRIB_3, Q14160; [2]): 3.53; pKd (HTRA1, Q92743; [2]): 4.36; pKd (GRIP2_6, Q9C0E4; [2]): 3.81; pKd (DLG1_1, Q12959; [2]): below the threshold; pKd (IL16_3, Q14005; [2]): below the threshold; pKd (SNTB1, Q13884; [2]): below the threshold; pKd (APBA2_2, Q99767; [2]): below the threshold

Q: DSKPPLPPDEWV [MERS-E, K9N5R3] was tested. Which pKd (TJP2_1, Q9UDY2; [3]) did it give?
A: 3.84

Q: And the pKd (GRASP, Q7Z6J2; [3])?
A: below the threshold

Q: What about the pKd (SCRIB_2, Q14160; [3]) of the same binder?
A: 3.58

Q: And the pKd (PDZD2_2, O15018; [3])?
A: 5.11

Q: What about the pKd (MPDZ_10, O75970; [3]) of the same binder?
A: below the threshold

Q: And the pKd (IL16_4, Q14005; [3])?
A: below the threshold

Q: And the pKd (APBA2_1, Q99767; [3])?
A: below the threshold

Q: And the pKd (DLG5_1, Q8TDM6; [3])?
A: below the threshold

Q: What about the pKd (LNX2_3, Q8N448; [3]) of the same binder?
A: below the threshold

Q: What about the pKd (MPP6, Q9NZW5; [3]) of the same binder?
A: below the threshold

Q: What about the pKd (DFNB31_2, Q9P202; [3]) of the same binder?
A: below the threshold

Q: And the pKd (NHERF4_1, Q86UT5-2; [3])?
A: below the threshold

Q: And the pKd (LIMK2, P53671; [3])?
A: below the threshold

Q: And the pKd (RAPGEF6, Q8TEU7; [3])?
A: below the threshold

Q: And the pKd (TJP1_2, Q07157; [3])?
A: 4.16

Q: What about the pKd (DVL3, Q92997; [3]) of the same binder?
A: 3.78

Q: What about the pKd (SNX27, Q96L92; [3]) of the same binder?
A: 4.56

Q: What about the pKd (ARHGEF11, O15085; [3]) of the same binder?
A: 3.91

Q: What about the pKd (GRIP2_3, Q9C0E4; [3]) of the same binder?
A: 3.52

Q: And the pKd (SCRIB_3, Q14160; [3])?
A: 3.9

Q: What about the pKd (HTRA1, Q92743; [3]) of the same binder?
A: 4.34

Q: What about the pKd (GRIP2_6, Q9C0E4; [3]) of the same binder?
A: below the threshold

Q: And the pKd (DLG1_1, Q12959; [3])?
A: below the threshold

Q: What about the pKd (IL16_3, Q14005; [3]) of the same binder?
A: below the threshold

Q: And the pKd (SNTB1, Q13884; [3])?
A: 3.8

Q: And the pKd (APBA2_2, Q99767; [3])?
A: below the threshold
